Data on 3 molecules can be found in patent publication US20190023809A1, “ANTI-NICOTINAMIDE PHOSPHORIBOSYLTRANSFERASE ANTIBODY GENES AND METHODS OF USE THEREOF” (The Children's Mercy Hospital, priority 2015, published 2019).

For series [1], the system named is CIA. The settings on record: CIA mice; cited from earlier work.
For series [2] the following is noted: cited from earlier work.
Series [3] has as its system SP-B. The series is described as follows: SP-B expression in H441 cells pretreated with FK866, without or with TNF-α (western blot). The format is cell-based, human. The procedure: FIG. 21 illustrates NAMPT inhibited SP-B expression via both its nonenzymatic and enzymatic activity. (A) H441 cells were transfected with either pCAGGS, pCAGGS-hNAMPT or pCAGGS-H247E. Cell lysate of NAMPT (10 μg), SP-B (30 μg) and GAPDH (10 μg) proteins were detected by western blot. Protein bands were quantified by densitometry using image J, and NAMPT levels (B) and SP-B levels (C) were normalized to GAPDH levels. Values are means±SD of 3 independent experiments. *p<0.05 vs. pCAGGS cells; #p<0.05 vs pCAGGS-hNAMPT cells. (D) H441 cells were pretreated with different doses of FK866 for 6 h before treatment without or with TNF-α (25 ng/ml) for 24 hours. Cell lysate of NAMPT (10 μg), SP-B (30 μg) and GAPDH (10 μg) proteins were detected by western blot. Protein bands were quantified by densitometry using image J, and NAMPT levels (E) and SP-B levels (F) were normalized to GAPDH levels. Values are means±SD of 3 independent experiments. *p<0.05 vs cells without FK866 or rhTNF-α treatment. #p<0.05 vs cells pretreated with FK866 but without rhTNF-α treatment;
This example determined that NAMPT inhibits SP-B expression mainly via its nonenzymatic activity and partly via its enzymatic activity. […]

Series [4] in a line: Cell culture experiments: cell death. In kind it is cell-based. The text has this:
(§1) In one embodiment of the present disclosure, as best shown in FIG. 1A, the cDNA for each single-chain variable fragment (scFv) antibody was cloned, including a histidine tag on the 3′ end, into the pCAGGS expression vector. The VH and VL fragments for each scFv are separated by a (G4S)3 linker and encode proteins of 247 and 249 amino acids, respectively for NAMPT-scFv1 (antibody 1 or Ab1) and scFv2 (antibody 2 or Ab2) (FIG. 1B). To test the anti-NAMPT ability of each construct, MTS assays were performed in transfected 3T3-L1 (ATCC CL-173™) and RAW 264.7 (ATCC® TIB-71™) cells.

In series [5] the test system is 3T3-L1 cells. The experiment in a line: MTS / CellTiter 96 AQueous One cell proliferation assay in transfected 3T3-L1 cells. In kind it is cell-based, mouse. The settings on record: for decreased proliferation as compared to the pCAGGS control population: fibroblasts, FIG. 1C; for proliferation of mouse 3T3: transfected cells, preliminary result. The procedure:
FIG. 1C is a graphic representation of the results of assay of cell proliferation of 3T3-L1 cells transfected with scFV1 and scFv2 or pCAGGS control. After 72 h, cell proliferation was assayed by CellTiter 96® AQueous One Solution Cell Proliferation Assay (Promega, cat #G3582). Values are means±SD, N=12, * p≤0.001;
as §1
We expressed and purified recombinant mouse NAMPT protein and obtained two human against mouse NAMPT antibody gene clones, termed NAMPT-scFv1 (Ab1) and -scFv2 (Ab2), by screening a HuScL-2™ Phage Display Naïve Human scFv Library (www.creative-biolabs.com/). We cloned the cDNAs for each scFv, including a histidine-tag on the 3′ end, into the pCAGGS expression vector. The VH and VL fragments for each scFv are separated by a (G4S)3 linker and encode proteins of 247 and 249 amino acids, respectively for NAMPT-scFv1 and -scFv2. To test the anti-NAMPT ability of each construct, we performed MTS assays in transfected 3T3-L1 (ATCC® CL-173™) and RAW 264.7 (ATCC® TIB-71™) cells. […] To increase the specificity of these constructs we generate a hetero-dimer and a hetero-tetramer using established procedures. The hetero-dimer [scFv1-scFv2], also called a di-body, is separated by a GGSSRSSSSGGGGSGGGG linker. The hetero-tetramer, also called a tetra-body, consists of two dimers [scFv1-scFv2]2 joined by the HIV1 P21 capsid protein linker, GATPQDLNTML. The P21 linker is an epitope for the murine monoclonal CB4-1 antibody. […] Thus, we utilize the CB4-1 antibody and nickel-columns (His-Tag) to manipulate and purify our recombinant scFv antibodies. We enhance the specificity and tertiary structures of the di-body and tetra-body by modifying the type and length of the linker sequences. Their antisense clone of NAMPT-scFv1 and -scFv2 is used as controls. Since similar effects in in vitro assay were observed, only NAMPT-scFv1 and its antisense clone are used to prepare the constructs under the control of either the human MRP8 promoter or mouse MPO promoter for tissue specific expression in neutrophils or neutrophils and monocytes, respectively.

Series [6] deals with cell NAD synthesis. The experiment in a line: NAD synthesis by transfected 3T3-L1 cells (Amplite Fluorimetric NAD/NADH Ratio Assay Kit). The format is cell-based, mouse. The procedure:
FIG. 1D is a graphic representation of the results of assay of NAD synthesis by 3T3-L1 cells transfected with scFv1 or pCAGGS control. After 72 h NAD synthesis was measured by Amplite™ Fluorimetric NAD/NADH Ratio Assay Kit (AAT Bioquest®, Inc. prod. number 15263). Values are means±SD, N=4, p≤0.005. Ab1, antibody 1; Ab2, antibody 2;
as §1

Series [7] concerns human a549 cell. The series is described as follows: Proliferation of human a549 cell (data not shown). The format is cell-based.
Series [8] relates to macrophage cell lines. The series is described as follows: MTS proliferation assay in transfected macrophage cell lines (RAW 264.7). The format is cell-based, mouse. The following applies: data not shown.
Description: as §1
We expressed and purified recombinant mouse NAMPT protein and obtained two human against mouse NAMPT antibody gene clones, termed NAMPT-scFv1 (Ab1) and -scFv2 (Ab2), by screening a HuScL-2™ Phage Display Naïve Human scFv Library (www.creative-biolabs.com/). We cloned the cDNAs for each scFv, including a histidine-tag on the 3′ end, into the pCAGGS expression vector. The VH and VL fragments for each scFv are separated by a (G4S)3 linker and encode proteins of 247 and 249 amino acids, respectively for NAMPT-scFv1 and -scFv2. To test the anti-NAMPT ability of each construct, we performed MTS assays in transfected 3T3-L1 (ATCC® CL-173™) and RAW 264.7 (ATCC® TIB-71™) cells. […] To increase the specificity of these constructs we generate a hetero-dimer and a hetero-tetramer using established procedures. […]

For the molecule `O=C(/C=C/c1cccnc1)NCCCCC1CCN(C(=O)c2ccccc2)CC1` [FK866], the “severity and progression of arthritis” value in series [1] is given as “effectively reduce”. Also, the “side effect in humans” value in series [2] is “thrombocytopenia”. The “rescue of TNF-α induced inhibition of SP-B” value in series [3] (FK866 6 h then TNF-α 25 ng/ml 24 hours) is on record as “did not significantly rescue”. The SP-B expression result in series [3] (FK866 pretreatment 6 h) is listed as “increased”.

B1: Ab1: anti-NAMPT single-chain variable fragment antibody clone, 247 amino acids, SEQ ID NO 1/2, in pCAGGS expression vector (protein, listed as Homo sapiens)
scFv: MEVQLLESGGGLVQPGGSLRLSCAASGFTFSSYAMSWVRQAPGKGLEWVSVINVPGNRTSYADSVKGRFTISRDNSKNTLYLQMNSLRAEDTAVYYCAKKTRRFDYWGQGTLVTVSSGGGGSGGGGSGGGGSTDIQMTQSPSSLSASVGDRVTITCRASQSISSYLNWYQQKPGKAPKLLIYGASVLQSGVPSRFSGSGSGTDFTLTISSLQPEDFATYYCQQRVRSPATFGQGTKVEIKRHHHHHH
modifications: (32)..(36) CDR1; (51)..(70) CDR2 scFv1; (99)..(105) CDR3 scFv1; (157)..(167) CDR4; (183)..(189) CDR5 scFv1; (224)..(230) CDR6 scFv1; (242)..(247) Histidine Tag
Regarding B1, the cell death entry in series [4] is recorded as “induce cell death”. In series [5], the “decreased proliferation as compared to the pCAGGS control population” value was “about 50%” and the “proliferation of mouse 3T3” value is reported as “inhibit proliferation”. Moreover, the “NAD synthesis, FIG. 1D values (Avg±SD)” value in series [6] (3T3-L1 cells transfected, after 72 h, pCAGGS control, N=4) turned out to be 68.3%+10.4. The “cell NAD synthesis” value in series [6] (transfected cells) was “inhibited cell NAD synthesis”. Also, the “proliferation of human a549 cell” value in series [7] is “inhibited proliferation”. The “proliferation of macrophage cell lines” value in series [8] is recorded as “inhibit proliferation”.

B2: Ab2: anti-NAMPT single-chain variable fragment antibody clone, 249 amino acids, SEQ ID NO 3/4, in pCAGGS expression vector (protein, listed as Homo sapiens)
scFv: MEVQLLESGGGLVQPGGSLRLSCAASGFAFSSYAMSWVRQAPGKGLEWVSNISGRGAKTTYADSVKGRFTISRDNSKNTLYLQMNSLRAEDTAVYYCAKTYLVFDYWGQGTLVTVSSGGGGSGGGGSGGGGSTDIQMTQSPSSLSASVGDRVTITCRASQSISSYLNWYQQKPGKAPKLLIYRASSLQSGVPSRFSGSGSGTDFTLTISSLQPEDFATYYCQQISATPTTFGQGTKVEIKRAAHHHHHH
modifications: (32)..(36) CDR1; (41)..(60) CDR2 scFv2; (90)..(96) CDR3 scFv3; (108)..(122) 15-mer linker sequence; (147)..(157) CDR4; (173)..(180) CDR5 scFv2; (214)..(220) CDR6 scFv2; (234)..(239) Histidine Tag
In the case of B2, in series [4], the cell death result was “induce cell death”. In addition, the “cell proliferation, FIG. 1C values (Avg±SD)” value in series [5] (3T3-L1 cells transfected, after 72 h, pCAGGS control, N=12) is on record as 49.8%+4.6. Further, in series [5], the “decreased proliferation as compared to the pCAGGS control population” value is “about 50%” and the “proliferation of mouse 3T3” value was “inhibit proliferation”. The “proliferation of human a549 cell” value in series [7] is reported as “inhibited proliferation”. Moreover, in series [8], the “proliferation of macrophage cell lines” value is “inhibit proliferation”.
